B1: ESR2 (parent)
chain: KSCQACRLRKCYEVGMVKCGSRRE
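Note: lentivirally expressed fusions sorted by FACS into six bins by GFP to DsRed ratio, PSI derived from sequencing read proportions per bin multiplied by bin number.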

The variants in this data set derive from B1. In words: protein stability index of a GFP-peptide fusion (GPS, HEK-293T) (PSI 1-6); higher = more stable. Conditions: c terminus: a fixed tail appended.
With KSCQACRLRKCYEVGMVKCHSRRE [G20H], the protein stability index worked out at 2.75.

On to KSCQACRLRKCYEVGMVKCWSRRE [G20W], for which the protein stability index worked out at 1.48.

As for KSCQACRLRKCYEVGMVKCFSRRE [G20F], the protein stability index was found to be 2.01.

As to KSCQACRLRKCYEVGMVKCISRRE [G20I], the protein stability index turned out to be 2.16.

As for KSCQACRLRKCYEVGMVKCYSRRE [G20Y], the protein stability index came out at 2.15.

For the variant KSCQACRLRKCYEVGMVKCDSRRE [G20D], the protein stability index turned out to be 1.87.

For the variant KSCQACRLRKCYEVGMVKCCSRRE [G20C], the protein stability index came to 1.95.

As for KSCQACRLRKCYEVGMVKCTSRRE [G20T], the protein stability index was 2.19.

Turning to KSCQACRLRKCYEVGMVKCNSRRE [G20N], the protein stability index amounted to 2.12.

KSCQACRLRKCYEVGMVKCRSRRE [G20R]: the protein stability index stood at 2.49.

In the case of KSCQACRLRKCYEVGMVKCESRRE [G20E], the protein stability index stood at 2.41.

For KSCQACRLRKCYEVGMVKCKSRRE [G20K], the protein stability index came out at 2.41.

On to KSCQACRLRKCYEVGMVKCQSRRE [G20Q], for which the protein stability index is 1.73.

Regarding KSCQACRLRKCYEVGMVKCASRRE [G20A], the protein stability index worked out at 1.91.

As for KSCQACRLRKCYEVGMVKCLSRRE [G20L], the protein stability index was 1.73.

For the variant KSCQACRLRKCYEVGMVKCSSRRE [G20S], the protein stability index is 1.81.

Regarding KSCQACRLRKCYEVGMVKCMSRRE [G20M], the protein stability index was 1.73.

As to KSCQACRLRKCYEVGMVKCVSRRE [G20V], the protein stability index was 1.87.

As to KSCQACRLRKCYEVGMPKCGSRRE [V17P], the protein stability index worked out at 1.82.

Take KSCQACRLRKCYEVGMFKCGSRRE [V17F]: the protein stability index stood at 1.94.

For KSCQACRLRKCYEVGMKKCGSRRE [V17K], the protein stability index came to 2.54.

Take KSCQACRLRKCYEVGMIKCGSRRE [V17I]: the protein stability index was determined as 2.21.

As for KSCQACRLRKCYEVGMLKCGSRRE [V17L], the protein stability index was found to be 1.61.

Consider KSCQACRLRKCYEVGMAKCGSRRE [V17A], for which the protein stability index was found to be 2.41.

Regarding KSCQACRLRKCYEVGMMKCGSRRE [V17M], the protein stability index was 2.37.

On to KSCQACRLRKCYEVGMTKCGSRRE [V17T], for which the protein stability index worked out at 1.98.

With KSCQACRLRKCYEVGMNKCGSRRE [V17N], the protein stability index was found to be 3.53.

As to KSCQACRLRKCYEVGMRKCGSRRE [V17R], the protein stability index amounted to 1.82.

For the variant KSCQACRLRKCYEVGMCKCGSRRE [V17C], the protein stability index stood at 3.72.

As for KSCQACRLRKCYEVGMWKCGSRRE [V17W], the protein stability index stood at 1.86.

Regarding KSCQACRLRKCYEVGMDKCGSRRE [V17D], the protein stability index was 1.6.

For the variant KSCQACRLRKCYEVGMSKCGSRRE [V17S], the protein stability index was 2.16.

As for KSCQACRLRKCYEVGMGKCGSRRE [V17G], the protein stability index turned out to be 2.27.

As for KSCQACRLRKCYEVGMHKCGSRRE [V17H], the protein stability index was determined as 2.97.

On to KSCQACRLRKCYEVGMEKCGSRRE [V17E], for which the protein stability index stood at 1.89.

For the variant KSCQACRLRKCYEVGMQKCGSRRE [V17Q], the protein stability index was 2.1.

Turning to KSCQACRLRKCYEVGMYKCGSRRE [V17Y], the protein stability index came to 1.78.

On to KSCQACRLRKCYEVGMVKAGSRRE [C19A], for which the protein stability index was found to be 2.18.

Turning to KSCQACRLRKCYEVGMVKSGSRRE [C19S], the protein stability index was 1.61.

With KSCQACRLRKCYEVGMVKHGSRRE [C19H], the protein stability index turned out to be 1.94.

KSCQACRLRKCYEVGMVKTGSRRE [C19T]: the protein stability index worked out at 2.81.

As for KSCQACRLRKCYEVGMVKDGSRRE [C19D], the protein stability index was 2.51.

As for KSCQACRLRKCYEVGMVKEGSRRE [C19E], the protein stability index was found to be 2.43.

Turning to KSCQACRLRKCYEVGMVKMGSRRE [C19M], the protein stability index was 1.9.

For KSCQACRLRKCYEVGMVKIGSRRE [C19I], the protein stability index amounted to 1.4.

As to KSCQACRLRKCYEVGMVKWGSRRE [C19W], the protein stability index worked out at 3.71.

As to KSCQACRLRKCYEVGMVKVGSRRE [C19V], the protein stability index was determined as 1.89.

As to KSCQACRLRKCYEVGMVKQGSRRE [C19Q], the protein stability index was 1.53.

Turning to KSCQACRLRKCYEVGMVKLGSRRE [C19L], the protein stability index was determined as 1.89.

Consider KSCQACRLRKCYEVGMVKFGSRRE [C19F], for which the protein stability index was found to be 1.86.

With KSCQACRLRKCYEVGMVKRGSRRE [C19R], the protein stability index worked out at 2.52.

On to KSCQACRLRKCYEVGMVKYGSRRE [C19Y], for which the protein stability index worked out at 1.43.

For KSCQACRLRKCYEVGMVKPGSRRE [C19P], the protein stability index stood at 2.28.

On to KSCQACRLRKCYEVGMVKGGSRRE [C19G], for which the protein stability index amounted to 2.11.

For the variant KSCQACRLRKCYEVGMVKNGSRRE [C19N], the protein stability index came to 2.04.

For the variant KSCQACRLRKCYEVGMVKKGSRRE [C19K], the protein stability index worked out at 1.76.

Take KSCQACRLRKCYEVGMVKCGERRE [S21E]: the protein stability index stood at 2.25.

On to KSCQACRLRKCYEVGMVKCGKRRE [S21K], for which the protein stability index came to 2.39.

In the case of KSCQACRLRKCYEVGMVKCGWRRE [S21W], the protein stability index was 1.5.

Consider KSCQACRLRKCYEVGMVKCGQRRE [S21Q], for which the protein stability index stood at 1.32.

Regarding KSCQACRLRKCYEVGMVKCGMRRE [S21M], the protein stability index was determined as 2.13.

Consider KSCQACRLRKCYEVGMVKCGNRRE [S21N], for which the protein stability index amounted to 2.57.

As to KSCQACRLRKCYEVGMVKCGRRRE [S21R], the protein stability index was 2.09.

In the case of KSCQACRLRKCYEVGMVKCGGRRE [S21G], the protein stability index was found to be 1.89.

Take KSCQACRLRKCYEVGMVKCGHRRE [S21H]: the protein stability index is 2.65.

As for KSCQACRLRKCYEVGMVKCGLRRE [S21L], the protein stability index stood at 2.44.

For KSCQACRLRKCYEVGMVKCGFRRE [S21F], the protein stability index is 1.5.

Consider KSCQACRLRKCYEVGMVKCGTRRE [S21T], for which the protein stability index was 2.31.

For KSCQACRLRKCYEVGMVKCGCRRE [S21C], the protein stability index came out at 3.46.

As for KSCQACRLRKCYEVGMVKCGDRRE [S21D], the protein stability index was 1.75.

In the case of KSCQACRLRKCYEVGMVKCGARRE [S21A], the protein stability index was found to be 2.24.

As to KSCQACRLRKCYEVGMVKCGPRRE [S21P], the protein stability index is 2.29.

On to KSCQACRLRKCYEVGMVKCGVRRE [S21V], for which the protein stability index amounted to 1.56.

In the case of KSCQACRLRKCYEVGMVKCGYRRE [S21Y], the protein stability index is 1.76.

In the case of KSCQACRLRKCYEVGMVKCGIRRE [S21I], the protein stability index turned out to be 1.69.

Regarding KSCQACRLRKCYEVGMVKCGSNRE [R22N], the protein stability index is 1.91.

Take KSCQACRLRKCYEVGMVKCGSMRE [R22M]: the protein stability index came to 2.21.

With KSCQACRLRKCYEVGMVKCGSFRE [R22F], the protein stability index was 1.41.

As to KSCQACRLRKCYEVGMVKCGSLRE [R22L], the protein stability index is 1.33.

Regarding KSCQACRLRKCYEVGMVKCGSIRE [R22I], the protein stability index is 1.83.

Regarding KSCQACRLRKCYEVGMVKCGSARE [R22A], the protein stability index was 1.88.

KSCQACRLRKCYEVGMVKCGSCRE [R22C]: the protein stability index is 3.45.

KSCQACRLRKCYEVGMVKCGSKRE [R22K]: the protein stability index was found to be 2.35.

Regarding KSCQACRLRKCYEVGMVKCGSTRE [R22T], the protein stability index stood at 1.92.

As for KSCQACRLRKCYEVGMVKCGSERE [R22E], the protein stability index was 2.98.

Consider KSCQACRLRKCYEVGMVKCGSDRE [R22D], for which the protein stability index stood at 3.02.

In the case of KSCQACRLRKCYEVGMVKCGSWRE [R22W], the protein stability index was 2.05.

For KSCQACRLRKCYEVGMVKCGSGRE [R22G], the protein stability index was found to be 1.99.

KSCQACRLRKCYEVGMVKCGSHRE [R22H]: the protein stability index worked out at 1.97.

Turning to KSCQACRLRKCYEVGMVKCGSYRE [R22Y], the protein stability index was found to be 1.66.

For KSCQACRLRKCYEVGMVKCGSVRE [R22V], the protein stability index stood at 1.97.

Consider KSCQACRLRKCYEVGMVKCGSQRE [R22Q], for which the protein stability index was 2.04.

On to KSCQACRLRKCYEVGMVKCGSPRE [R22P], for which the protein stability index is 2.33.

For KSCQACRLRKCYEVGMVKCGSSRE [R22S], the protein stability index is 1.91.

Source of the values: the supplement of paper PMC10567573.
